The target in data set [1] is T1, C-C chemokine receptor type 5 (CCR5) (Homo sapiens, UniProt P51681 P51681:1-352). The experiment in a line: cell_activity; HIV-1 R5 BaL p24 day 3; day 5 245.5 ± 35.76, day 7 243.2 ± 46.16. The note with it: tags: endogenous on in vivo generated human CD4+ T cells.
The target in data set [2] is T1, C-C chemokine receptor type 5 (CCR5). Nature of the data set: cell_activity; HIV-1 R5 BaL p24 day 3; day 5 354.3 ± 113.3, day 7 >1000. Conditions: tags: endogenous on primary PBMC-CD4+ cells. The method, then: (§1) PBMCs were freshly isolated from healthy donors and CD8 cells were depleted as described above. After culture for 3 days in the activated T-cell culture medium containing interleukin-2, the cell-surface CCR5 level of PBMCs was detected by flow cytometry as described previously. HIV-1 protection assay was performed in 24-well tissue culture plates. Duplicate night-point dilution series of experimental RNAs were prepared and refolded in refolding buffer. PBMCs were washed once with pre-warmed PBS, and 4×10^5 PBMCs were seeded to each well of assay plates. Subsequently, experimental RNAs with different concentrations were added. Plates were incubated for 4-6 hours at 37° C. in a humidified 5% CO_2 incubator. Various viruses (R5 strains: JR-FL, Bal, MOI=0.01; or X4 strains: IIIB, NL4-3, MOI=0.001) were added into each well. After 24 hours incubation, the cells were gently washed with pre-warmed PBS to eliminate free viruses and were incubated sequentially at 37° C. in a humidified 5% CO_2 incubator.
(§2) The $IC50$ value of G-3 aptamer was indicated here. G-3 aptamers with different concentrations were incubated with primary PBMCs. After 4-6 hours incubation, various viruses (R5 strains: JR-FL, Bal; or X4 strains: IIIB, NL4-3) were added into each well. The culture supernatants were collected at different time points after infection for HIV-1 p24 antigen ELISA assay. […]

For data set [3] the target is unchanged. Nature of the data set: flow; apparent Kd, live cells, RT 30 min, DPBS with 1 mM Ca2+/1 mM Mg2+ and tRNA; R2 0.95; reduced by CCR5 siRNA knockdown; no binding to CCR5-negative U373-Magi. Conditions: tags: U373-Magi-CCR5E cells. The method, then:
Adherent cell lines (U373-Magi cells and U373-Magi-CCR5E cells) were washed with pre-warmed PBS and detached with Cell stripper. Suspension cell lines (CEM-NKr cells, CEM-NKr-CCR5 cells, and PBMCs) were washed twice with pre-warmed PBS. After counting the cells' number, the desired number of cells was resuspended in 100 µL binding buffer containing Cy3-labeled experimental RNA aptamers at different concentrations as shown. After incubation at room temperature for 30 min, cells were washed three times with 500 µL of pre-warmed binding buffer, and finally resuspended in 350 µL of DPBS for flow cytometry analysis (Flow cytometry core, City of Hope, CA). The dissociation constants were calculated using nonliner curve regression with a Graph Pad Prism 6.0.

The target is the same in data set [4]. Nature of the data set: cell_activity; HIV-1 R5 JR-FL p24 day 3; day 5 232.6 ± 38.3, day 7 170.4 ± 47.0; X4 strains IIIB and NL4-3 not inhibited. Conditions: tags: endogenous on primary PBMC-CD4+ cells. The method, then:
as §1, §2

Data set [5] has the same target. The experiment in a line: cell_activity; HIV-1 R5 JR-FL p24 day 3; day 5 58.51 ± 11.22, day 7 17.09 ± 5.90; X4 NL4-3 not converged. The note with it: tags: endogenous on in vivo generated human CD4+ T cells.
Data set [6] has the same target. The experiment in a line: cell_activity; HIV-1 R5 JR-FL p24 day 3; day 5 142.6 ± 41.3, day 7 79.3 ± 21.6; siRNA also contributes. The note with it: tags: endogenous on primary PBMC-CD4+ cells; label: Cy3 on aptamer-sense strand, Cy5 on antisense strand; aptamer with UU linker and siRNA duplex, 2-nt 3' overhang.

This is an account of results in patent US9605266, “Cell-specific internalizing RNA aptamers against human CCR5 and uses therefore” (CITY OF HOPE).

T1 sequence (P51681 whole entry, one chain of several): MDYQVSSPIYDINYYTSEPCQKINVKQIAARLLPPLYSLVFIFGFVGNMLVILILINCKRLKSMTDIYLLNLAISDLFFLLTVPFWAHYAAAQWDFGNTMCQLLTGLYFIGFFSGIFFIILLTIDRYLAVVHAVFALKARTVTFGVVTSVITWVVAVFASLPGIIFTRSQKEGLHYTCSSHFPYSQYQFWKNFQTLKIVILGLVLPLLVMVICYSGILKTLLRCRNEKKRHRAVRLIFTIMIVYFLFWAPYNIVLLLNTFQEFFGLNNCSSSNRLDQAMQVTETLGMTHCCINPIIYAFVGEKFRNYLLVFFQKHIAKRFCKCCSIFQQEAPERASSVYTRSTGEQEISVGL

B1: G-3 aptamer (ssRNA)
RNA: GGGAGGACGAUGCGGGCCUUCGUUUGUUUCGUCCACAGACGACUCGCCCGA
modifications: 2'-F pyrimidines (2'-F-C, 2'-F-U)
For orientation: IC50 means the midpoint of a concentration-inhibition curve. Low readings indicate greater potency in that assay, high ones weaker potency in that assay. On to B1, for which the IC50 in data set [1] stood at 148 nM; in data set [2], 349 nM; in data set [4], 220 nM; in data set [5], 48 nM. Also, in data set [3], the Kd is 111 nM.

B2: G-3-TNPO3 27-mer OVH chimera (mixed)
RNA 1: GGGAGGACGAUGCGGGCCUUCGUUUGUUUCGUCCACAGACGACUCGCCCGAUUCAAAGCCGACAUUGCAGCUCGUGUACC
RNA 2: UACACGAGCUGCAAUGUCGGCUUUG
modifications: 2'-F pyrimidines in sense strand (transcribed)
For the molecule B2, in data set [6], the IC50 stood at 23.2 nM.
